Measured values taken from patent US20240272170A1 (QUANTUM SI, published 2024).
Read-outs that look alike come from different tables or passages of the source. Each block holds one binder with its values, some of them ahead of it. No end group written: not given here. *: point of attachment. FITC = O=C1OC2(c3ccc(O)cc3Oc3cc(O)ccc32)c2ccc(NC(=S)*)cc21

Tests used:
[1] = target: T1, LA Peptide (fluorescence polarization); assay: fluorescence polarization, FITC peptide titrated with protein
T1 peptide: LAKLDEESILKQK(FITC)

[2] = target: VA Peptide (fluorescence polarization) (FITC on the C-terminal lysine); assay: as above
[3] = target: T2, AA Peptide (fluorescence polarization), AAKLDEESILKQ{LYS(FITC)}; assay: as above
T2 peptide: AAKLDEESILKQK(FITC)

[4] = target: T3, MA Peptide (fluorescence polarization); assay: as above
T3 peptide: MAKLDEESILKQK(FITC)

[5] = target: T4, MA peptide (Octet assay of PS557 variants); assay: Octet (BLI), peptide on sensor, response after 200 s association
T4 construct: Peptide coated on the Octet sensor
Source text: (§1) In the high-throughput assay, Octet sensors are coated with the peptide of interest and dipped in buffer containing the purified protein. An approximation of relative binding can be obtained by comparing the response after 200 seconds for each protein. Each protein has approximately the same molecular mass and is used at the same concentration, so ranking the proteins by response level in this assay gives an approximation of which proteins have improved binding. Studying the on and off-rate can also give insight into the mechanism of binding.

[6] = target: T5, IA peptide (Octet assay of PS557 variants); assay: as above
T5 construct: Peptide coated on the Octet sensor
Source text: as §1

[7] = target: T6, FA peptide (Octet assay of PS557 variants); assay: as above
T6 construct: Peptide coated on the Octet sensor
Source text: as §1

[8] = target: T7, WA peptide (Octet assay of PS557 variants); assay: as above
T7 construct: Peptide coated on the Octet sensor
Source text: as §1

[9] = target: T8, YA peptide (Octet assay of PS557 variants); assay: as above
T8 construct: Peptide coated on the Octet sensor
Source text: as §1

[10] = target: T9, AA peptide (Octet assay of PS557 variants); assay: as above
T9 construct: Peptide coated on the Octet sensor
Source text: (§2) In the high-throughput assay, Octet sensors are coated with the peptide of interest and dipped in buffer containing the purified protein. […] Studying the on and off-rate can also give insight into the mechanism of binding.

[11] = target: T10, VA peptide (Octet assay of PS557 variants); assay: as above
T10 construct: Peptide coated on the Octet sensor
Source text: as §2

[12] = target: T11, LA peptide (Octet assay of PS557 variants); assay: as above
T11 construct: Peptide coated on the Octet sensor
Source text: as §2

[13] = target: T4, MA peptide (Octet assay of PS557 …); assay: as above; remark: listed apart in the source
Source text: as §2

[14] = target: T5, IA peptide (Octet assay of PS557 …); assay: as above; remark: listed apart in the source
Source text: as §2

[15] = target: T6, FA peptide (Octet assay of PS557 …); assay: as above; remark: listed apart in the source
Source text: as §2

[16] = target: T12, RA peptide (XAKLDEESILKQK-FITC, X = R); assay: fluorescence polarization titration, 20 C
T12 construct: also called peptide with N-terminal arginine
T12 peptide: RAKLDEESILKQK(FITC)
Description: (§3) Binding affinity was measured by polarization using a labeled peptide. The polarization response and total intensity measurements were carried out at 20° C. on a microplate fluorometer with 480 nm excitation and 530 nm emission. […] Multiple analyses were performed at increasing recognizer concentration at a fixed concentration of a target peptide to obtain a titration curve. An equilibrium polarization response at each concentration was plotted and fit to calculate the KD.
(§4) Fluorescence polarization assays were performed with all candidates, and single point binding responses were measured at a fixed concentration of the binders (FIG. 13A). […] We carried out multiple polarization binding titration analysis at increasing concentration of binder protein, and the Kds were determined from the titration curves (FIG. 13B).

[17] = target: T13, HA peptide (XAKLDEESILKQK-FITC, X = H); assay: fluorescence polarization titration, 20 C
T13 construct: also called peptide with N-terminal histidine
T13 peptide: HAKLDEESILKQK(FITC)
Description: as §3, §4

[18] = target: T12, RA peptide (XAKLDEESILKQK-FITC, X = R); assay: fluorescence polarization titration, PS621 0-5000 nM
Description: as §3, §4

[19] = target: T14, second R of YRELRLLK (RLLK); assay: on-chip single-molecule dynamic sequencing, example traces, time axis 0-600 min
T14 construct: also called parent peptide after cleavage to the second arginine
T14 peptide: RLLK

[20] = target: T15, QP1165 after cleavage to N-terminal alanine (AFLKQRVWK); assay: on-chip dynamic sequencing of QP1165, PS2132 run, trace Aperture=376215
T15 peptide: AFLKQRVWK

[21] = target: T15, QP1165 after cleavage to N-terminal …; assay: on-chip dynamic sequencing of QP1165, PS1875 run, trace Aperture=430641
[22] = target: T15, QP1165 after cleavage to N-terminal …; assay: on-chip dynamic sequencing of QP1165, PS2121 run, trace Aperture=740473
[23] = target: T15, QP1165 after cleavage to N-terminal …; assay: on-chip dynamic sequencing of QP1165, PS2123 run, trace Aperture=501326
[24] = target: T15, QP1165 after cleavage to N-terminal …; assay: on-chip dynamic sequencing of QP1165, PS2132 run, trace Aperture=1826247
[25] = target: T15, QP1165 after cleavage to N-terminal …; assay: on-chip dynamic sequencing of QP1165, PS1875 run, trace Aperture=1353995
[26] = target: T15, QP1165 after cleavage to N-terminal …; assay: on-chip dynamic sequencing of QP1165, PS2121 run, trace Aperture=1683362
[27] = target: T15, QP1165 after cleavage to N-terminal …; assay: on-chip dynamic sequencing of QP1165, PS1875 run, trace Aperture=1311609
[28] = target: T15, QP1165 after cleavage to N-terminal …; assay: on-chip dynamic sequencing of QP1165, PS1875 run, trace Aperture=1377116
Description: (§5) The semiconductor chip was placed in the sequencing device and a chip check was performed to test electronic circuit function and to optimize laser coupling alignment. The chip was then removed from the device socket and the chip was washed twice with 50 μL of 70% isopropanol, followed by four washes with 30 μL of wash buffer (50 mM MOPS pH 8.0, 60 mM potassium acetate, 50 mM glucose, 20 mM magnesium acetate, and surfactant mix) through a flow cell attached to the chip. A second chip check was then performed. The laser was then blocked via an integrated software-controlled shutter, peptide complex was added to a final concentration of 1-10 nM and mixed thoroughly, and the chip was incubated for 15 min. The chip was then washed six times with wash buffer, followed by addition of an imaging solution (wash buffer with 5 mM Trolox and an oxygen scavenging system). The laser was unblocked and the occupancy percentage (target 10-30%, Poisson distributed) was recorded by acquiring a photobleaching signal from a fluorophore attached to the peptide complex during 5 min of laser illumination. […] Data was recorded for 15 min. The laser was then blocked briefly and aminopeptidases were added to the sequencing reaction via the flow cell and mixed thoroughly (final concentration 2-8 μM PhTET2 and/or 20-80 μM PhTET3, as indicated according to the experiment). The laser was then unblocked, and data was recorded for 10 hours. For all runs, 30 μL of mineral oil was added to fluid reservoirs at each port of the flow cell to prevent evaporation during the run.

[29] = target: T15, QP1165 after cleavage to N-terminal …; assay: on-chip dynamic sequencing of QP1165, PS2123 run, trace Aperture=1168773
[30] = target: T15, QP1165 after cleavage to N-terminal …; assay: on-chip dynamic sequencing of QP1165, 500 nM PS1875 plus five recognizers, 7305 alignments
[31] = target: T15, QP1165 after cleavage to N-terminal …; assay: on-chip dynamic sequencing of QP1165, 500 nM PS1875 plus five recognizers, 3369 alignments
[32] = target: T15, QP1165 after cleavage to N-terminal …; assay: on-chip dynamic sequencing of QP1165, 500 nM PS2132 plus five recognizers, 36192 alignments
[33] = target: T15, QP1165 after cleavage to N-terminal …; assay: on-chip dynamic sequencing of QP1165, 500 nM PS2121 plus five recognizers, 15527 alignments
[34] = target: T15, QP1165 after cleavage to N-terminal …; assay: on-chip dynamic sequencing of QP1165, 500 nM PS1875 plus five recognizers, 11565 alignments
Description: as §5

[35] = target: T15, QP1165 after cleavage to N-terminal …; assay: on-chip dynamic sequencing of QP1165, 500 nM PS2123 plus five recognizers, 62511 alignments

B1: PS852 (designed binder)
chain: MPTAASATESAIEDTPAPARPEVDGRTKPKHQPRYHVVLWDDDDHTYQYVVVMLRSLFGHPPERGYRLAKEMDTQGRVIVLTTTREHAELKRDQIHAFGYDRLLARSKGSMKASIEAEE
notes: Variant of PS557
Kd [1]: 19 nM
Kd [2]: 142 nM
Kd [3]: 5.14 µM
Kd [4]: 1140 nM
Octet response [5]: 5.48 nm
Octet response [6]: 9.38 nm
Octet response [7]: 0.102 nm
Octet response [8]: 0.0292 nm
Octet response [9]: 0.177 nm

B2: PS963 (designed binder)
chain: MPTAASATESAIEDTPAPARPEVDGRTKPKRQPRYHVVLWDDDDHTYQYVVVMLRSLFGHPPARGYRLAKEMDTQGRVIVLTTTREHAELKRDQIHAFGRDRLLARSKGSMKASIEAEE
notes: Variant of PS557
Octet response [10]: 4.06 nm
Octet response [11]: 10.4 nm
Octet response [12]: 9.65 nm
Octet response [13]: 8.4 nm
Octet response [14]: 10.2 nm
Octet response [15]: 2.25 nm

B4: PS857 (designed binder)
chain: MPTAASATESAIEDTPAPARPEVDGRTKPKRQPRYHVVLWDDDDHTYQYVVVMLQSLFGHPPERGYRMAKEMDTQGRVIVLTTTREHAELKRDQIHAFGYDRLLARSKGSMKASIEAEE
notes: Variant of PS557; also called N41D, V72M, L68M
Kd [1]: 7 nM
Kd [2]: 487 nM
Kd [3]: 15 µM
Kd [4]: 746 nM

B5: PS961 (designed binder)
chain: MPTAASATESAIEDTPAPARPEVDGRTKPKRQPRYHVVLWDDDDHTYQYVVVMLRSLFGHPPSRGYRMAKEMDTQGRVIVLTTTREHAELKRDQIHAFGRDRLLARSKGSMKASIEAEE
notes: Variant of PS557; also called N41D, V72M, Q55R, E63S, L68M, Y100R
Kd [3]: 3.3 µM
Kd [4]: 143 nM
Octet response [10]: 4.87 nm
Octet response [11]: 11.3 nm
Octet response [12]: 11.8 nm
Octet response [13]: 9.26 nm
Octet response [14]: 11.5 nm
Octet response [15]: 2.05 nm

B6: PS621 (other)
chain: MHSKFSHAGRICGAKFKVGEPIYRCKECSFDDTCVLCVNCFNPKDHTGHHVYTTICTEFNNGICDCGDKEAWNHTLFCKAEEG
notes: tag of the assay construct not specified; also called UBR protein from Kluyveromyces marxianus
Kd [16]: 475 nM
Kd [17]: 6.77 µM
Kd [18]: 475 nM
binding result [19]: binds

Other lines, results leading:

Kd [1]: 10 nM
Kd [2]: 205 nM
Kd [3]: 6.77 µM
Kd [4]: 648 nM
Octet response [5]: 9.5 nm
Octet response [6]: 13.5 nm
Octet response [7]: 0.673 nm
Octet response [8]: 0.165 nm
Octet response [9]: 1.31 nm
B3: PS824 (designed binder)
chain: MPTAASATESAFEDTPAPARPEVDGRTKPKRQPRYHVVLWDDDDHTYQYVVVMLRSLFGHPPERGYRLAKEMDTQGRVIVLTTTREHAELKRDQIHAFGYDRLLARSKGSMKASIEAEE
notes: Variant of PS557

PD of a recognition segment in an example trace [20]: 0.32 s
PD of a recognition segment in an example trace [21]: 0.64 s
PD of a recognition segment in an example trace [22]: 0.75 s
PD of a recognition segment in an example trace [23]: 0.39 s
PD of a recognition segment in an example trace [24]: 0.64 s
PD of a recognition segment in an example trace [25]: 0.87 s
PD of a recognition segment in an example trace [26]: 2.53 s
PD of a recognition segment in an example trace [27]: 1.26 s
PD of a recognition segment in an example trace [28]: 0.75 s
PD of a recognition segment in an example trace [29]: 0.43 s
IPD (interpulse duration) [30]: 15 s
PD (pulse duration) [30]: 0.66 s
IPD (interpulse duration) [31]: 14.7 s
PD (pulse duration) [31]: 0.76 s
IPD (interpulse duration) [32]: 16.1 s
PD (pulse duration) [32]: 0.62 s
IPD (interpulse duration) [33]: 16 s
PD (pulse duration) [33]: 0.72 s
IPD (interpulse duration) [34]: 17.2 s
PD (pulse duration) [34]: 0.72 s
IPD (interpulse duration) [35]: 17.4 s
PD (pulse duration) [35]: 0.7 s
B7: PS1587 (designed binder)
single polypeptide, two PS1165 units in tandem: MGLENSLETLRFSISNLSMQTHAARMRTFMYWPSSVPVQPEQLASAGFYYVGRNDDVKCFCCDGGLRCWESGDDPWVEHAKWFPRCEFLIRMKGQEFVDEIQGRYPHLLEQLLSEAAAKEAAAKEAAAKMGLENSLETLRFSISNLSMQTHAARMRTFMYWPSSVPVQPEQLASAGFYYVGRNDDVKCFCCDGGLRCWESGDDPWVEHAKWFPRCEFLIRMKGQEFVDEIQGRYPHLLEQLLSG
notes: also called PS1587 (AST)
